One may read the Kd as a measure of binding affinity in units of concentration. A high value points to lower affinity.

The source of these data is the Immune Epitope Database (IEDB).

Details in all cases: source organism: Pseudomonas fluorescens
One test has as its target HLA-A*11:01. In words: IEDB peptide-MHC binding, purified MHC/direct/fluorescence; filed as Kd, often an IC50 or EC50 that approximates it; ≥ and ≤ were set here for values at or beyond the usual limits of such assays.
For a further test, the target named is HLA-A*69:01. The test is described as above.
Another test deals with HLA-B*07:02. The test is described as above.
A further test addresses HLA-B*35:01. The test is described as above.
The target of the next test is HLA-A*01:01. Described as above.
Another test has as its target HLA-B*27:05. The test is described as above.
The next test has as its target HLA-B*15:01. Described as above.
For a further test, the target named is HLA-B*58:01. The test is described as above.
Another test concerns the target HLA-A*31:01. Described as above.
The next test concerns the target HLA-B*40:01. The test is described as above.
For another test, the target named is HLA-B*08:01. The description is as above.
The next test addresses HLA-A*03:01. Described as above.
The target in another test is HLA-A*02:01. The description is as above.
The next test concerns the target HLA-B*15:02. In words: IEDB peptide-MHC binding, purified MHC/competitive/fluorescence; filed as Kd, often an IC50 or EC50 that approximates it; ≥ and ≤ were set here for values at or beyond the usual limits of such assays.

On to FVSVYFSDY, for which the dissociation constant Kd is at least 20 µM with HLA-A*11:01; at least 20 µM in the test with HLA-A*69:01; at least 20 µM with HLA-B*07:02; 0.0654 µM in the test with HLA-B*35:01; 0.135 µM with HLA-A*01:01; at least 20 µM with HLA-B*27:05. Moreover, the Kd in the test with HLA-B*15:01 is 0.25 µM; with HLA-B*58:01 it was at least 20 µM; with HLA-A*31:01, at least 20 µM; in the test with HLA-B*40:01 it was at least 20 µM; with HLA-B*08:01, at least 20 µM; in the test with HLA-A*03:01, at least 20 µM. Also, the values for the dissociation constant (Kd) with HLA-A*02:01 and with HLA-B*15:02 were at least 20 µM and 0.04 µM, respectively.
